Drawing on patent publication US20230035859A1, “COMPOSITIONS AND METHODS FOR EPITOPE SCANNING” (priority 2019, published 2023), this text covers % Peptide Exchange and EpiScan MFI for eight molecules.

The target of one test is QuickSwitch Quant HLA-A*02:01 Tetramers (PE or APC labeled) (MBL International), A*02:0. Briefly: QuickSwitch Quant tetramer control peptide exchange.
As for AMDEFIERYKL (modifications not checked), the % Peptide Exchange was found to be 96.9%.

With YIDIGNYTV (modifications not checked), the % Peptide Exchange is 97.9%.

For TLATHGLAAV (modifications not checked), the % Peptide Exchange was 98%.

VMAYITGGV (modifications not checked): the % Peptide Exchange is 99.1%.

Turning to VMVELVAEL (modifications not checked), the % Peptide Exchange worked out at 98.6%.

Molecule SLPGVFCGV (modifications not checked) had a % Peptide Exchange of 98%.

As for VLYQDVNCTEV (modifications not checked), the % Peptide Exchange turned out to be 97.9%.

The molecule VMAYITGGVV (modifications not checked) had a % Peptide Exchange of 99.1%.

The target of another test is HLA-A*02:01 (human).
Assay: not given
AMDEFIERYKL (modifications not checked) returned an EpiScan MFI of 2.35.

On to YIDIGNYTV (modifications not checked), for which the EpiScan MFI was found to be 4.42.

In turn, TLATHGLAAV (modifications not checked) came in with an EpiScan MFI of 4.04.

VMAYITGGV (modifications not checked) returned an EpiScan MFI of 4.53.

VMVELVAEL (modifications not checked) gave an EpiScan MFI of 5.34.

In turn, SLPGVFCGV (modifications not checked) had an EpiScan MFI of 6.42.

VLYQDVNCTEV (modifications not checked) returned an EpiScan MFI of 5.6.

With VMAYITGGVV (modifications not checked), the EpiScan MFI was 4.64.
